For data set [1], the target named is T1, MUT-8^NTD (1-235), purified (C. elegans, UniProt Q19672 1-235).
T1 construct: C. elegans MUT-8 N-terminal domain construct, residues 1-235
T1 sequence (looked up): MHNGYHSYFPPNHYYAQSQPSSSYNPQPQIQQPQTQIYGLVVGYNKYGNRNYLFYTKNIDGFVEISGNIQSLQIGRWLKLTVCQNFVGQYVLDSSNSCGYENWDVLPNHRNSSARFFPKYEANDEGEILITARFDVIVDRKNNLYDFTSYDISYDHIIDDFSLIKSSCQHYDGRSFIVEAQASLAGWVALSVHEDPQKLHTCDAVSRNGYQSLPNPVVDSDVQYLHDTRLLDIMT
The data set can be described thus: ITC; cell 46 µM MUT-8^NTD, syringe 600 µM MUT-16^584-724; 20 °C; 25 mM Tris/HCl pH 7.5, 150 mM NaCl, 0.25 mM TCEP; 19 injections of 2 µL; mean of three experiments. The settings on record: both partners purified.

In data set [2] the target is T2, MUT-7FL/MUT-8CTD chain MUT-7FL;MUT-8CTD (Caenorhabditis elegans;Caenorhabditis …, UniProt P34607;Q19672 1-910;322-578, |).
T2 sequence 1: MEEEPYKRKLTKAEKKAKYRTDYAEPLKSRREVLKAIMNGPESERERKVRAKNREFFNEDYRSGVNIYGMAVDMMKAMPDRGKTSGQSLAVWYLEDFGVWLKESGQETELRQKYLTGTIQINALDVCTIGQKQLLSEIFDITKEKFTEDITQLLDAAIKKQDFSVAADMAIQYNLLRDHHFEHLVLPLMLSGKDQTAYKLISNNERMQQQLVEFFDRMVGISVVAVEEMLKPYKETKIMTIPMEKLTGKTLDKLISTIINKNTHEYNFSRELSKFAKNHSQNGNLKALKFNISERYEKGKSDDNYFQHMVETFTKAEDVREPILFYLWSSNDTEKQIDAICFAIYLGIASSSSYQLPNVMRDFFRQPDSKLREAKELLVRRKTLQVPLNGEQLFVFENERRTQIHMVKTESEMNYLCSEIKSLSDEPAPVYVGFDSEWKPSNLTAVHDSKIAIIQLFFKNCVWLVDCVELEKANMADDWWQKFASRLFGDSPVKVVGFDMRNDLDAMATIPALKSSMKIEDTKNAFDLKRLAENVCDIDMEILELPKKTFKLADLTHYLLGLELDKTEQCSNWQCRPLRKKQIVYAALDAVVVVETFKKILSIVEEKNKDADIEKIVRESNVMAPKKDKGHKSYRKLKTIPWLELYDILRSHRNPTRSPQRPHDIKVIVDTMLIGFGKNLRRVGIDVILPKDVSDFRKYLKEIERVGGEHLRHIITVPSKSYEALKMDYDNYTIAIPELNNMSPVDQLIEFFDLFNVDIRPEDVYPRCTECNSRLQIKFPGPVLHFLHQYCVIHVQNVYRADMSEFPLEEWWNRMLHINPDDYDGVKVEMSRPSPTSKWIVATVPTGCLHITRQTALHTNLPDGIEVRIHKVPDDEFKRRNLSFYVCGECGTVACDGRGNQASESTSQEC
T2 sequence 2: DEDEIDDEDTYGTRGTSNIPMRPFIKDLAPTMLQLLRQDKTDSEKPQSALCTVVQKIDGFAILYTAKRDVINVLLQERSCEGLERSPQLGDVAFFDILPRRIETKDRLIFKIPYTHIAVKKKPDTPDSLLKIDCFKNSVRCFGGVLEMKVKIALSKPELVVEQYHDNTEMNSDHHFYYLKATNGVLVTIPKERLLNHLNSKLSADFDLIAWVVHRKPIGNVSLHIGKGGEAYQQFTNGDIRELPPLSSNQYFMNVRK
The data set can be described thus: fluorescence polarisation; 50 mM KCl, 5 mM EDTA; FP: 50 nM RNA, 20 mM HEPES/NaOH pH 7.5, 50 mM KCl, 5 mM EDTA (C. elegans) or 250 mM NaCl (human EXD3 and MUT-7 D435A), room temperature, 30 min. The note with it: protein: recombinant;recombinant; copies: 1;1; label: 5'-FAM; single strand.

In data set [3] the target is T3, MUT-7^FL/MUT-8^FL complex (C. elegans, UniProt P34607 1-910; Q19672 1-578).
T3 construct: C. elegans MUT-7, residues 1-910; C. elegans MUT-8 (RDE-2), residues 1-578; also called MUT-7/MUT-8; full-length MUT-7/MUT-8; source: E. coli BL21(DE3) derivative, co-expressed and purified as a complex through several chromatographic steps
T3 sequence (looked up) 1: T2 sequence 1
T3 sequence (looked up) 2: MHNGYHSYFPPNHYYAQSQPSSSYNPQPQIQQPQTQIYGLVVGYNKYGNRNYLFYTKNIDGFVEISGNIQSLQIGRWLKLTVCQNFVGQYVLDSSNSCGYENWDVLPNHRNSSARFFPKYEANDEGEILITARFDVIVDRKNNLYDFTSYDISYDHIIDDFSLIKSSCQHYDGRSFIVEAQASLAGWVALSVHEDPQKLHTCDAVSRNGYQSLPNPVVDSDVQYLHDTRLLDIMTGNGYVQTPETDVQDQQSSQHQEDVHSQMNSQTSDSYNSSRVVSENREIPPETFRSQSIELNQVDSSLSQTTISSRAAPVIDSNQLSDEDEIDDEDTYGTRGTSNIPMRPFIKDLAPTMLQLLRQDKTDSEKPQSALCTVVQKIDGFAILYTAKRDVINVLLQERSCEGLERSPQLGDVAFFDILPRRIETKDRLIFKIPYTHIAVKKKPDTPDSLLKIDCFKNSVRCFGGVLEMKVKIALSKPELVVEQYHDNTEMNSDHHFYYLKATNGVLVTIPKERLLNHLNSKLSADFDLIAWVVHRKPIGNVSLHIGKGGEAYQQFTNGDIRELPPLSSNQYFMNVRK
The data set can be described thus: pull-down; purified proteins (5 µM), GST-tagged MUT-16 constructs as bait on glutathione resin; 20 mM HEPES/NaOH pH 7.5, 150 mM NaCl, 10% glycerol, 0.05% IGEPAL, 2 mM DTT; 4 °C; SDS-PAGE, Coomassie. The settings on record: both partners purified.

B1: MUT-16^584-724, purified (SEC, ITC) (domain or fragment, C. elegans, UniProt O62011 584-724, looked up)
chain: KKKSESSATDTSNTPPVDTVNVALPTPVVESSSTTAAPSIPVSTRPEVVVPPENPAPLREVGNFYSKSNHDEDRRNVQLPFTPADTHKPIKVAPKEPVRNPLLKERPSANGFINRRLPSHPAPPPVNQSQPANQPMQTAVY
notes: source: E. coli BL21(DE3) derivative, purified (alone, or co-expressed with MUT-8^NTD and purified as a complex)
B1 displayed a Kd in data set [1] of around 13 µM.

B2: 16-mer ssRNA (ssRNA)
RNA: GUUGAUUGAAGAGUUC
For the molecule B2, the Kd in data set [2] worked out at 0.17 µM.

B3: GST-tagged MUT-16^1-724 (domain or fragment, C. elegans, UniProt O62011 1-724, looked up)
chain: MSESDDDYPELDISDQYIDPLGIVVGPPPASYTETDREETPMQNRTEDDTNSYGNSSGEHDYDSYLDSGDDDFDVDAYYANDNMDEPPPETIPDNLIQNVIGRNDNADYDFSDASNPEIMKRDLQLFLSSSLLSNPLKFRSGYSSDELDDCLKSCMGYSLQVTAVLLLPPEIISQLPNDSKTEHAHALVRGGWLQSKEGAFFPVISDSERETVVSLMNGSEEQHKRQERKKKEADTFESEEKEIRTLLTFNMIAELLMAVRNEYSIRSVKYQILSTAYTNMVTGAAHANIFRKYKDILQLDPEKLWNNDWFKEYTNRGTLKKFLTTARFSEIVVSQANGKTVELYFRADDEGNRPVVLFTDEHIADVRNKWKTGNQRNQNYGSQGNYRAGGQRSDDRRGPQQRRNVIVPDPNYQPSTFAGGISNNADDDGSLQPTTSSHFNRNTDRSTSRPPRAPTSPVNRVMETDPLMGQGTSSGAPQRSAIPNPFGGAPALSRSTITNGNRGPSYGDRGERVQDVGDTTSDSEITSEGSYSDEDPEQKEIKRQRRKDKLKKKQERELRSREKHTKSKQQPPSKIETRFNTYKKKSESSATDTSNTPPVDTVNVALPTPVVESSSTTAAPSIPVSTRPEVVVPPENPAPLREVGNFYSKSNHDEDRRNVQLPFTPADTHKPIKVAPKEPVRNPLLKERPSANGFINRRLPSHPAPPPVNQSQPANQPMQTAVY
notes: source: E. coli BL21(DE3) derivative, purified as GST-tagged fusion protein
As to B3, the binding result in data set [3] is recorded as “binds”.

Source of the values: paper doi:10.1101/2023.12.20.572533, “MUT-7 exoribonuclease activity and localisation are mediated by an ancient domain” (bioRxiv, 2023).
